In US20230099200A1, “RADIOLABELED PEPTIDES FOR NON-INVASIVE DIAGNOSIS AND TREATMENT OF CXCR4 EXPRESSING TUMORS” (ISTITUTO NAZIONALE TUMORI IRCCS - FONDAZIONE G. PASCALE, priority 2019, published 2023):
Where two headings read alike, the source gives them in different places. Where a SMILES comes first, the peptide text is derived from it. Bridges are numbered along the chain shown (N, C = ends). [ ]: non-standard residue; d: D form. The star is where a group is joined. AMBHA = 6-(4-(aminomethyl)benzamido)hexanoic acid linker, NCc1ccc(C(=O)NCCCCCC(=O)*)cc1; DOTA = O=C(O)CN1CCN(CC(=O)O)CCN(CC(=O)*)CCN(CC(=O)O)CC1; NOTA = O=C(O)CN1CCN(CC(=O)O)CCN(CC(=O)*)CC1; 2Nal = N[C@@H](Cc1ccc2ccccc2c1)C(=O)O; Fmoc = O=C(OCC1c2ccccc2-c2ccccc21)*; Pen = CC(C)(S)[C@H](N)C(=O)O; 4Amb = NCc1ccc(C(=O)O)cc1; Ahx = NCCCCCC(=O)O

Legend:
CXCR4 [1] = molecular target: T1, CXCR4 (Homo sapiens, UniProt P61073); settings: competitive binding assay using anti-CXCR4 mAb 12G5; read-out: CXCR4 affinity IC50; cited from earlier work
T1 sequence (P61073 whole entry): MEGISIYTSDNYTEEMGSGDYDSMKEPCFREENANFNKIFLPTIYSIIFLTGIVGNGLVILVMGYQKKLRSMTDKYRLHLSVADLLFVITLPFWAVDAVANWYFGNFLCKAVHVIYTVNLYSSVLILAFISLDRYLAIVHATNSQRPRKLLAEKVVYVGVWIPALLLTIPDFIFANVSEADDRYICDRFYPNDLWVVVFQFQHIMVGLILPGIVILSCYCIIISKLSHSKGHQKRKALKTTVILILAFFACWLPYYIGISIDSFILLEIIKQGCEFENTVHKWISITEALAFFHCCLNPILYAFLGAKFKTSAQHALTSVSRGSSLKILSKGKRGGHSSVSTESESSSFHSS

in vivo = experiment: in vivo; design: species or system mice; settings: female, athymic nude, mouse, iv, total radioactivity
Text: (§1) Female athymic nude mice (6 weeks old from Envigo Laboratories, Indianapolis, Ind., USA) were subcutaneously (s.c.) injected with 10^7 CHO (right flank) and CHO-hCXCR4 (left flank) or CHO-hCXCR4 cells alone (right flank). Once tumors became palpable (100=^3 [volume=0.5×long diameter×(short diameter)^2]), approximately 15-21 days post injection (p.i.), the animals were used for the experiments. Tumor-bearing CHO/CHO-hCXCR4 mice were i.v. injected with 10-15 MBq of the respective radiotracer in 100 μL of PBS. At 45 min p.i., mice were anaesthetized with Avertin and images were acquired using a Discovery 600 PET/TC scanner (GE healthcare) in 3D mode with measured attenuation correction (1 bed position, 6 min scanning time). Data were decay-corrected to the time of tracer injection. The reconstructed images including PET, CT and fused PET/TC images, were generated on the advantage workstation version (AW4.6 software, GE healthcare). Tissue activity (e.g. tumor, lung, liver, kidney) was quantified considering the volume of a region of interest (ROI) to determine maximum standardized uptake values (SUVmax). Non-specific tracer accumulation was investigated by co-injection of 8 mg/kg unlabeled peptide […]. CHO and CHO-hCXCR4 tumors were microscopically analyzed (H&E) and CXCR4 expression was evaluated through immunohistochemistry (IHC) (mab172, clone 44716, diluition 1:[…]&D system). The percentage of positive cells was evaluated in at least 5 areas (HPF 200× magnification) (Zeiss AxioScope light microscope). Statistical analysis was performed using the MedCalc 9.3.7.0 and Excel software. Unpaired Student t test was used for statistical analysis of ex vivo biodistribution and PET/TC images. The Spearman's correlation was used to measure the degree of association between SUV(max) and % CXCR4 IHC staining.

CHO-hCXCR4 xenografts = experiment: in vivo; design: species or system mice; settings: mouse; for tumor accumulation upon co-injection of unlabeled competitor (R54): 8 mg/kg
Text: as §1

CHO-hCXCR4 tumor = system: CHO-hCXCR4 tumor; design: species or system mice; settings: mouse, in vivo
Description: Female athymic nude mice (6 weeks old from Envigo Laboratories, Indianapolis, Ind., USA) were subcutaneously (s.c.) injected with 10^7 CHO (right flank) and CHO-hCXCR4 (left flank) or CHO-hCXCR4 cells alone (right flank). Once tumors became palpable (100=^3 [volume=0.5×long diameter×(short diameter)^2]), approximately 15-21 days post injection (p.i.), the animals were used for the experiments. 10-15 MBq of the respective ^68Ga-labeled peptide in 100 μL of PBS were injected into the tail vein of nude mice bearing CHO-hCXCR4 tumor (groups of n=3-5). For competition studies, 8 mg/kg of unlabeled […], were co-injected with the radioligands. At 45 min p.i., blood was collected from the retro-orbital plexus (100 μl) and mice were sacrificed and the tissues and organs of interest were dissected, weighed, and counted for radioactivity in a γ-counter. Biodistribution data are given as percent injected dose per gram tissue, % ID/g (means±SD). The biodistribution of [^68Ga]DOTA-AMBHA-R54 and [^68Ga]NOTA-AMBHA-R54 was investigated in CHO-hCXCR4 bearing […] mice (45 min p.i.). […] Data are given in % ID/g and are means±SD.

CXCR4 [2] = molecular target: T1, CXCR4; experiment: competitive binding with [^125I]CXCL12 as radioligand on CXCR4-expressing CCRF-CEM cells; design: using CXCR4-expressing CCRF-CEM cells, human T lymphoblastic leukemia cells CXCR4 expressing; endogenous in cells; host or cells: CCRF-CEM (human T-cell leukemia), whole cells; settings: [^125I]CXCL12 radioligand, means ±SD, read-out: hCXCR4 binding affinity IC50
Description: Specifically, according to the present invention, DOTA and NOTA-AMBHA-R54 were synthesized by combining solid and solution-phase peptide synthesis. Binding affinities (IC50) were determined using CXCR4-expressing CCRF-CEM cells, human T lymphoblastic leukemia cells CXCR4 expressing, with [^125I]CXCL12 as radioligand. Chinese hamster ovary (CHO) and CHO cells transduced with human CXCR4 (CHO-hCXCR4) grown in complete medium supplemented with 1 mg/mL G418 (a kind gift of Dr. David McDermott (NIAID, NIH, Bethesda, Md.).
Binding affinities to hCXCR4 were assessed with CCRF-CEM cells (1·10^6 cells/sample) in binding buffer (PBS containing 50 mM HEPES, 1 mM CaCl2, 5 mM MgCl2, 0.5% BSA, and 0.3 mM NaN3) and [^125I]CXCL12 (Perkin-Elmer, 2200 Ci/mmol) as radioligand. Cells were incubated with 100.000 cpm of the respective radioligand (approx. 0.1 nM) plus increasing concentrations (10^−11 to 10^−5 M) of the respective peptide of interest (n=3 per concentration, total sample volume 250 μL). After incubation at 4° C. for 60 min (CCRF-CEM cells) at room temperature (RT), samples were centrifuged (5 min, 450 g, Megafuge 1.0, Heraeus Thermo Scientific), the supernatant was carefully removed and pooled with the supernatants of two subsequently performed washing steps. […]

[3] = molecular target: T2, human CXCR4 (chemokine receptor 4) on CCRF-CEM cells (human, UniProt P61073 1-352); experiment: displacement of [125I]CXCL12 from CXCR4-expressing CCRF-CEM cells, gamma counting
T2 construct: whole, on cells; also called hCXCR4
T2 sequence (P61073 whole entry): as above
Description: Cells were incubated with 100.000 cpm of the respective radioligand (approx. 0.1 nM) plus increasing concentrations (10⁻¹¹ to 10⁻⁵ M) of the respective peptide of interest (n=3 per concentration, total sample volume 250 μL). After incubation at 4° C. for 60 min (CCRF-CEM cells) at room temperature (RT), samples were centrifuged (5 min, 450 g, Megafuge 1.0, Heraeus Thermo Scientific), the supernatant was carefully removed and pooled with the supernatants of two subsequently performed washing steps. Then, the amount of free (pooled supernatants) and bound radioligand (cell pellet) was quantified using a γ-counter and expressed in percent of total added activity. The half maximal inhibitory concentration (IC₅₀) values were calculated using GraphPad Prism software (GraphPad Software, Inc., California).
To assess the influence of modifications and chelator conjugation on R54, the CXCR4 affinity of Fmoc-AMBHA-R54 (see above the structure), NOTA-AMBHA-R54 and DOTA-AMBHA-R54 peptides as well as unmodified R54 were tested in competitive binding with [¹²⁵I]CXCL12 as radioligand on CXCR4-expressing CCRF-CEM cells. Each experiment was performed in triplicate, and results are means ±SD from a minimum of three separate experiments.

CC(=O)N[C@@H](CCCNC(=N)N)C(=O)N[C@@H](C)C(=O)N[C@@H]1CSSC(C)(C)[C@@H](C(=O)O)NC(=O)[C@H](Cc2cnc[nH]2)NC(=O)[C@H](Cc2ccc3ccccc3c2)NC(=O)[C@H](CCCNC(=N)N)NC1=O [Peptide R54, Ac-Arg-Ala-[DCys-Arg-Nal(2′)-His-Pen]COOH] (Ac-RA[dC]R[2Nal]H[Pen]-OH; disulfide 3-7)
IC50 (CXCR4 [1]): 1.5 ± 0.5 nM

C[C@H](NC(=O)[C@H](CCCNC(=N)N)NC(=O)CCCCCNC(=O)c1ccc(CNC(=O)CN2CCN(CC(=O)O)CCN(CC(=O)O)CCN(CC(=O)O)CC2)cc1)C(=O)N[C@@H]1CSSC(C)(C)[C@@H](C(=O)O)NC(=O)[C@H](Cc2c[nH]cn2)NC(=O)[C@H](Cc2ccc3ccccc3c2)NC(=O)[C@H](CCCNC(=N)N)NC1=O [[^68Ga]DOTA-AMBHA-R54, metal not drawn] ({DOTA-4Amb-Ahx}-RA[dC]R[2Nal]H[Pen]-OH; disulfide 3-7)
SUV at 0.75 h (in vivo): 2.02 ± 0.14 SUV | maximum standardized uptake value (SUVmax) (CHO-hCXCR4 xenografts): 2.02 ± 0.14 g/mL | tumor accumulation upon co-injection of unlabeled competitor (R54) (CHO-hCXCR4 xenografts): reduced to background levels | tumor/non-tumor ratios (CHO-hCXCR4 tumor): high tumor/non-tumor ratios

CC(=O)N[C@@H](CCCNC(=N)N)C(=O)N[C@@H](C)C(=O)N[C@@H]1CSSC(C)(C)[C@@H](C(=O)O)NC(=O)[C@H](Cc2c[nH]cn2)NC(=O)[C@H](Cc2ccc3ccccc3c2)NC(=O)[C@H](CCCNC(=N)N)NC1=O [Peptide R54, Ac-Arg-Ala-[DCys-Arg-Nal(2′)-His-Pen]COOH] (Ac-RA[dC]R[2Nal]H[Pen]-OH; disulfide 3-7)
IC50 (CXCR4 [2]): 20 ± 2 nM

C[C@H](NC(=O)[C@H](CCCNC(=N)N)NC(=O)CCCCCNC(=O)c1ccc(CNC(=O)CN2CCN(CC(=O)O)CCN(CC(=O)O)CC2)cc1)C(=O)N[C@@H]1CSSC(C)(C)[C@@H](C(=O)O)NC(=O)[C@H](Cc2c[nH]cn2)NC(=O)[C@H](Cc2ccc3ccccc3c2)NC(=O)[C@H](CCCNC(=N)N)NC1=O [[^68Ga]NOTA-AMBHA-R54, metal not drawn] ({NOTA-4Amb-Ahx}-RA[dC]R[2Nal]H[Pen]-OH; disulfide 3-7)
SUV at 0.75 h (in vivo): 19.6 ± 2 SUV | maximum standardized uptake value (SUVmax) (CHO-hCXCR4 xenografts): 19.6 ± 2.00 g/mL | tumor accumulation upon co-injection of unlabeled competitor (R54) (CHO-hCXCR4 xenografts): reduced to background levels | excretion route (CHO-hCXCR4 tumor): exclusive renal excretion | tumor/non-tumor ratios (CHO-hCXCR4 tumor): high tumor/non-tumor ratios

B1: Fmoc-AMBHA-R54 (peptide)
peptide: {Fmoc-AMBHA}-RA[dC]R[2Nal]H[Pen]-OH
modifications: disulfide 3-7
IC50 [3]: 38.5 nM

B2: DOTA-AMBHA-R54 (peptide)
peptide: {DOTA-AMBHA}-RA[dC]R[2Nal]H[Pen]-OH
modifications: disulfide 3-7
notes: also called DOTA-Ahx-R54; DOTA-R54
IC50 [3]: 107 nM

B3: NOTA-AMBHA-R54 (peptide)
peptide: {NOTA-AMBHA}-RA[dC]R[2Nal]H[Pen]-OH
modifications: disulfide 3-7
notes: also called NOTA-Ahx-R54; NOTA-R54
IC50 [3]: 36 nM
